Experimental data as given in patent US20210063414A1, “METHODS FOR PREVENTING AND/OR TREATING BONE LOSS CONDITIONS BY MODULATING IRISIN” (Dana-Farber Cancer Institute, Inc., priority 2018, published 2021).

Biological target: T1, MLO-Y4 cell surface proteins (Mus musculus, UniProt P70388)
T1 construct: endogenous in cells; host or cells: MLO-Y4
T1 sequence (P70388 1-1312): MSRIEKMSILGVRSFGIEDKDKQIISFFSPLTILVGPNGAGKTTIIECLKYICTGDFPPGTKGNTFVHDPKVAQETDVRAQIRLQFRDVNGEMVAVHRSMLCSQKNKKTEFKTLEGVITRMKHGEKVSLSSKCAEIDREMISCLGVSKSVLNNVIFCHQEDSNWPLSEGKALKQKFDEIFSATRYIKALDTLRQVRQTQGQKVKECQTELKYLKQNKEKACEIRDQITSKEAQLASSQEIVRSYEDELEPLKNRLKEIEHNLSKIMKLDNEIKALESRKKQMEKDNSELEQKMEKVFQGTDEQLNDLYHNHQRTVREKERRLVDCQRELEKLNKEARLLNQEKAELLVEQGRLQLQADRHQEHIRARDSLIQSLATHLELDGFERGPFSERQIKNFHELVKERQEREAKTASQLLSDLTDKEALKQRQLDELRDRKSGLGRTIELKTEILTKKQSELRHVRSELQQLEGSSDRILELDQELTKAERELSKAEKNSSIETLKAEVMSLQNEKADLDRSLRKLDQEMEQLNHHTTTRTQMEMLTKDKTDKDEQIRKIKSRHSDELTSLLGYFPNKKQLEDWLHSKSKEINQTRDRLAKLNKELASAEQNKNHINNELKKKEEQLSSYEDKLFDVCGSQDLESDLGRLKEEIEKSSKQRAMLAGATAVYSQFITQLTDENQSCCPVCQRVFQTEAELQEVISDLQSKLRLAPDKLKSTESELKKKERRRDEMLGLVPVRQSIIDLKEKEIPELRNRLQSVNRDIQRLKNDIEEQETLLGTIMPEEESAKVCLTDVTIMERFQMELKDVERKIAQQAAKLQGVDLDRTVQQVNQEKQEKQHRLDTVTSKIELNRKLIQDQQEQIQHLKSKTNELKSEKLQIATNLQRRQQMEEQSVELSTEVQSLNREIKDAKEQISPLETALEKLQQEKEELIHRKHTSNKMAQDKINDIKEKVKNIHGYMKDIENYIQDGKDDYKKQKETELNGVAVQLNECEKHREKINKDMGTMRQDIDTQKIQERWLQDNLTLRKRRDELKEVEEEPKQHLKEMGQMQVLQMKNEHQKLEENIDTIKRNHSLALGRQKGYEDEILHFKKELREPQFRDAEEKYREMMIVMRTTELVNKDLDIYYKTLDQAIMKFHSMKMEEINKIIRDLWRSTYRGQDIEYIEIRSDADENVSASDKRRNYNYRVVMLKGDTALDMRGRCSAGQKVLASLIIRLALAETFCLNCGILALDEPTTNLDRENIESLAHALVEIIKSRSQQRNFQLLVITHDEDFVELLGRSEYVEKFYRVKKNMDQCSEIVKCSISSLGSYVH
Experiment: Crosslinking/co-immunoprecipitation/mass spectrometry (TMT quantitative proteomics) to identify irisin receptors
Format: binding
Conditions: co-precipitated protein Rad50 (RAD50_MOUSE)
Outline: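 Mouse MLO-Y4 cells were switched to serum-free FreeStyle medium for 4 h, chilled, then exposed to 10 nM His-tagged irisin (or adipsin as control) for 20 min. Cells were crosslinked with 1.5 mM DTSSP (30 min, ice), and bound proteins were pulled down on Ni-NTA and eluted with 250 mM imidazole. Eluates were separated by SDS-PAGE, trypsin-digested in gel, TMT 6-plex labelled and quantified by MS3-based LC-MS/MS on an Orbitrap Fusion Lumos.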

For adipsin, the TMT signal-to-noise ratio was 422.246.
